Assay results published in patent US8586570B2, “Sox-based kinase sensor” (Massachusetts Institute of Technology, priority 2006, dated 2013).

What was measured:
Assay in all cases: Cross-reactivity of PKCα-S10 with PKC isozymes
Format in all cases: biochemical
Conditions in all cases: peptide 1 μM, isozyme 2 ng
[1] = target: T1, PKCι (Homo sapiens, UniProt P41743)
T1 sequence (P41743 1-596): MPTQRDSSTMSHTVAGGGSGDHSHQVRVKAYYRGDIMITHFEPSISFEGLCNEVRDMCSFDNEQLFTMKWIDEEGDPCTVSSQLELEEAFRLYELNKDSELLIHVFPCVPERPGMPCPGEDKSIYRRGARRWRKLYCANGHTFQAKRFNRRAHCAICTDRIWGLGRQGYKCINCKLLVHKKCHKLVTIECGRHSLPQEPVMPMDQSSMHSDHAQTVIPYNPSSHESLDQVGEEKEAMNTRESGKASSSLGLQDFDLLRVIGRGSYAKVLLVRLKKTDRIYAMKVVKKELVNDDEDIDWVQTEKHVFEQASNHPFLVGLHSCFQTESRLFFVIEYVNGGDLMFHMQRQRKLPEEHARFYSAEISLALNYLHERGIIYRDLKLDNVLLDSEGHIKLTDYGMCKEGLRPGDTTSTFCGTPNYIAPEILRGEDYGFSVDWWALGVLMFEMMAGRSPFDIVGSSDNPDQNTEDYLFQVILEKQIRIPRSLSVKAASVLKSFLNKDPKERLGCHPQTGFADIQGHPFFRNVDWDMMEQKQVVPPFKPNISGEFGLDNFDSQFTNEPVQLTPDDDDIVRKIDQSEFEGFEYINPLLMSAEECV
Description: (§1) With the kinetic parameters at hand it is possible to test the cross-reactivity of PKCα-S10 with PKC isozymes. In 12 separate reactions PKCα-S10 (1 μM) is subjected to phosphorylation with PKCα, PKCβI, PKCβII, PKCγ, PKCδ, PKCε, PKCζ, PKCη, PKCθ, PKCι, PKCμ and PKCν (2 ng).

[2] = target: T2, PKCζ (Homo sapiens, UniProt Q05513)
T2 sequence (Q05513 1-592): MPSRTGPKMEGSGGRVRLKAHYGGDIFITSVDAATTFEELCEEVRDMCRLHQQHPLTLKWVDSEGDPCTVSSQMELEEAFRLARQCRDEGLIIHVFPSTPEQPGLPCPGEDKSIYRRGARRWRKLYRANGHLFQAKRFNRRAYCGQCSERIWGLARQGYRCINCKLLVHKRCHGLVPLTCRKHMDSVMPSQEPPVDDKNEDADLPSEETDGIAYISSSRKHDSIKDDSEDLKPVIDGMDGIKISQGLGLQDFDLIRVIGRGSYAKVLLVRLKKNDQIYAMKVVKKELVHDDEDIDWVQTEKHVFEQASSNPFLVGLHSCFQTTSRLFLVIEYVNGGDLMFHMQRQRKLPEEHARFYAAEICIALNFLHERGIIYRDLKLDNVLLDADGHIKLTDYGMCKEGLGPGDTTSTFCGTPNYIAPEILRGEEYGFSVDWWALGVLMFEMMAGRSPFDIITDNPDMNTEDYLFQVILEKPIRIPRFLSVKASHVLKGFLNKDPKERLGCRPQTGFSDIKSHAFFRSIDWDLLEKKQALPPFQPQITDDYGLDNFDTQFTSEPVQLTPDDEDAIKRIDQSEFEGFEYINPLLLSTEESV
Description: as §1

[3] = target: PKCδ (Homo sapiens, UniProt Q05655)
PKCδ, sequence (Q05655 whole entry): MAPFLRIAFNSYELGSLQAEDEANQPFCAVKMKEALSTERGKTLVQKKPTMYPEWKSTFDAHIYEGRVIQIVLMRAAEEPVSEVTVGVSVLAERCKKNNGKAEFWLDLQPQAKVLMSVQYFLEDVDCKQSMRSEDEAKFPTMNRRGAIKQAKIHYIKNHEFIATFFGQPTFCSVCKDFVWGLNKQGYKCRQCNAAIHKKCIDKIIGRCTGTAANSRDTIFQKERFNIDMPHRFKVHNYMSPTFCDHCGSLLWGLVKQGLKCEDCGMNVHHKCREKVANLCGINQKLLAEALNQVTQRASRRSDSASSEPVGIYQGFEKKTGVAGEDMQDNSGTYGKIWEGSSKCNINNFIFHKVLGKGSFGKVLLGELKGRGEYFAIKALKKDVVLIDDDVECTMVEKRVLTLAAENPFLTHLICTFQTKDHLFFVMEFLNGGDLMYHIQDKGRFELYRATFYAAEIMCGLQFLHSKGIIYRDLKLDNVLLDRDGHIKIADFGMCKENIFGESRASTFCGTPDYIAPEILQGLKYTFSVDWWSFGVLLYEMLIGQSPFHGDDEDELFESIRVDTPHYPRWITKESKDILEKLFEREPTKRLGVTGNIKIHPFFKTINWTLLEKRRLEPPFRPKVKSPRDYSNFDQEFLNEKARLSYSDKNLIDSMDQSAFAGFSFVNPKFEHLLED
Description: as §1

[4] = target: PKCη (Homo sapiens, UniProt P24723)
PKCη, sequence (P24723 whole entry): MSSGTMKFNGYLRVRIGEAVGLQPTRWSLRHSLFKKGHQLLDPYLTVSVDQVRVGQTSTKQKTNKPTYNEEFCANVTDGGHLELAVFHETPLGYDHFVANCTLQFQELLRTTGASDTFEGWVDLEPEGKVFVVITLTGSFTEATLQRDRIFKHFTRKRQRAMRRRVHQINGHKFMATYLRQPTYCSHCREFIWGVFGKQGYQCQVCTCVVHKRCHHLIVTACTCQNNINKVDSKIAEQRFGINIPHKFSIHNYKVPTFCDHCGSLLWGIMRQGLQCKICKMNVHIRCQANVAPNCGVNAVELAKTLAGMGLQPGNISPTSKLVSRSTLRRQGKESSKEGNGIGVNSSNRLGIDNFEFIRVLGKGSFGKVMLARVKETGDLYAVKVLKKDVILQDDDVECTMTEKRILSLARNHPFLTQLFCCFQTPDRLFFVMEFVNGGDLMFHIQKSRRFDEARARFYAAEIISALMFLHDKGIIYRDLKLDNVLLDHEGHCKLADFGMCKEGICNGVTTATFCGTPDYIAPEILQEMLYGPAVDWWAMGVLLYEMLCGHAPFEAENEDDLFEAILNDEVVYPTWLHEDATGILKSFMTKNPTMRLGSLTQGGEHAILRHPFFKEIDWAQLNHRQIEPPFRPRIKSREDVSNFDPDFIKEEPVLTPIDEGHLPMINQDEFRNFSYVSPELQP
Description: as §1

[5] = target: T3, PKCε (Homo sapiens, UniProt Q02156)
T3 sequence (Q02156 1-737): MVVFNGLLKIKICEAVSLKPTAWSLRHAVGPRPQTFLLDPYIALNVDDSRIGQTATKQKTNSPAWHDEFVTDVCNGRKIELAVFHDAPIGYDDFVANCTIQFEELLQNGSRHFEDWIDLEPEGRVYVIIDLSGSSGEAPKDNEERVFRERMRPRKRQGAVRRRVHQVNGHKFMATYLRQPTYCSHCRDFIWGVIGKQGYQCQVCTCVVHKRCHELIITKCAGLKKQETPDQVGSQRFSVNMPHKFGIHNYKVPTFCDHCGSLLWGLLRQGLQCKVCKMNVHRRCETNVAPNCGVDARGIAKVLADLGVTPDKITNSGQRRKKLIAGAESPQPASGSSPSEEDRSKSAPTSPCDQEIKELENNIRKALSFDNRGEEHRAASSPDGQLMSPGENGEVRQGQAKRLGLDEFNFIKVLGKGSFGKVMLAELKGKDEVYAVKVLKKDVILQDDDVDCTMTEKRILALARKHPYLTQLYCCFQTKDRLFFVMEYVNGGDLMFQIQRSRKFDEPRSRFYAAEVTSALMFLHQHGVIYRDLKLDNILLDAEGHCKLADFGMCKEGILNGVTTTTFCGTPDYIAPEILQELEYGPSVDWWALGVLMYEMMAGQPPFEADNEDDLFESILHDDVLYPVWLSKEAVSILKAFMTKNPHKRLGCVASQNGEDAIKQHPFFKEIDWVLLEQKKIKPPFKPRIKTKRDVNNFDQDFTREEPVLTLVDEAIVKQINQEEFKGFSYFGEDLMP
Description: as §1

[6] = target: PKCβI (Homo sapiens, UniProt P05771)
PKCβI, sequence (P05771 whole entry): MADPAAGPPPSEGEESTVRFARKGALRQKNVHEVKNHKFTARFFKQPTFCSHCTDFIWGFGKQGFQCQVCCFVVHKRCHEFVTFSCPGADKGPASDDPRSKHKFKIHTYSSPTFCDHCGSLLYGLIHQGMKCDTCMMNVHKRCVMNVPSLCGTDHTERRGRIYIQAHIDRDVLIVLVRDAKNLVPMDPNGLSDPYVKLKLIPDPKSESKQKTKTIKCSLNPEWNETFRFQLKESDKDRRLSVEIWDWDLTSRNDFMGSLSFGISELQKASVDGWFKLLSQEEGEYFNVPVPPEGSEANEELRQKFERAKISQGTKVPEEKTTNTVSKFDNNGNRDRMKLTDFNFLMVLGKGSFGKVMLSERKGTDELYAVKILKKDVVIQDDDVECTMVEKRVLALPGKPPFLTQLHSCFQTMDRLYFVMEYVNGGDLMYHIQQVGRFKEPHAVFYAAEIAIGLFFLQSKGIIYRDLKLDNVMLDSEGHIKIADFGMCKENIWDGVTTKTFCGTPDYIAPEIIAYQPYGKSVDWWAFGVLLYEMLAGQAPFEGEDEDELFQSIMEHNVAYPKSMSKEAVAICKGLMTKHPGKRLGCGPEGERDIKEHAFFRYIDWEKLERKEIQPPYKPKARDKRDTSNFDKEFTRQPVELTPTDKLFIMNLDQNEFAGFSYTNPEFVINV
Description: as §1

[7] = target: PKCβII (Homo sapiens, UniProt P05771)
PKCβII, sequence (P05771 1-673 isoform P05771-2): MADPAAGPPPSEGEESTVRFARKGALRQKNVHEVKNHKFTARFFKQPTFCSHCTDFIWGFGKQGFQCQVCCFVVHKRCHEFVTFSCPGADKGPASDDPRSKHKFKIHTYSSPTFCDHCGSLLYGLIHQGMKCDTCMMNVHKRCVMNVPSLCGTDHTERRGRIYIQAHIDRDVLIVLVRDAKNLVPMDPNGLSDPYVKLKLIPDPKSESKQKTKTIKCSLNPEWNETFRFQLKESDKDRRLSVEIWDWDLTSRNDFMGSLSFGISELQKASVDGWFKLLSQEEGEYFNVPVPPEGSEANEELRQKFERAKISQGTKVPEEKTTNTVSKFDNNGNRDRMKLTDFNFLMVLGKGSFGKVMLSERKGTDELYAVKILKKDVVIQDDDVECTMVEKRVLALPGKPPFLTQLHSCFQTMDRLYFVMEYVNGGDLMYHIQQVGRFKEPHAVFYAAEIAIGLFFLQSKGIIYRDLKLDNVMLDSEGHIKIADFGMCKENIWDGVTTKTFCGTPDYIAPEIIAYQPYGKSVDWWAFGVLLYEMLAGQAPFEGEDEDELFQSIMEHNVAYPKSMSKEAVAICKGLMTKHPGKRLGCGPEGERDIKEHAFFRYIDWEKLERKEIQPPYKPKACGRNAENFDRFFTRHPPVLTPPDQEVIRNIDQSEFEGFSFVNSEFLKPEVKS
Description: as §1

[8] = target: PKCθ (Homo sapiens, UniProt Q04759)
PKCθ, sequence (Q04759 whole entry): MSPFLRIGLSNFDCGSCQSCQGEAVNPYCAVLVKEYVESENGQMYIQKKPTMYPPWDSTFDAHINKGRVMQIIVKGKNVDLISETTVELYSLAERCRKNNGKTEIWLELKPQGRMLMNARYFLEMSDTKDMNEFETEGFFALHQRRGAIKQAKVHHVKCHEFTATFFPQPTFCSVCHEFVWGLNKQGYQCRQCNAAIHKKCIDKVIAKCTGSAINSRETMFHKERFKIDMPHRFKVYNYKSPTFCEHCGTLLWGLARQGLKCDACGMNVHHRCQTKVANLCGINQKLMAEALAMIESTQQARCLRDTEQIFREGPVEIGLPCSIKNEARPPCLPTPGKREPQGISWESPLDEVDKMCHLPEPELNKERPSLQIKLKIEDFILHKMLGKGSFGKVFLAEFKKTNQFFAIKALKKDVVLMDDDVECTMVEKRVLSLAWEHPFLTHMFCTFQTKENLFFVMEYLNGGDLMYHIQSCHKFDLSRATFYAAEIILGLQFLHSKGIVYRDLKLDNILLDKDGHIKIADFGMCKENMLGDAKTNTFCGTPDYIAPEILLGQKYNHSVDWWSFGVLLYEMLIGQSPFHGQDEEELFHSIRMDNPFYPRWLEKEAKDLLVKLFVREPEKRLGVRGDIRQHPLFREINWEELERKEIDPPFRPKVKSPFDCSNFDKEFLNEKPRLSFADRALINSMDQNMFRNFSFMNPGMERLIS
Description: as §1

[9] = target: PKCγ (Homo sapiens, UniProt P05129)
Description: as §1

## Ac-RRR-C(Sox)-ASFRRKA-CONH2 [PKCα-S10(P10), Sox chemosensor with extended recognition domain for PKCα]
[1]
  activity of isozyme on peptide: very little activity
[2]
  activity of isozyme on peptide: very little activity
[3]
  activity of isozyme on peptide: no activity
[4]
  activity of isozyme on peptide: very little activity
[5]
  activity of isozyme on peptide: very little activity
[6]
  activity of isozyme on peptide compared with PKCα: slightly more active than PKCα
[7]
  activity of isozyme on peptide compared with PKCα: comparable activities to that of PKCα
[8]
  activity of isozyme on peptide compared with PKCα: slightly more active than PKCα
[9]
  activity of isozyme on peptide compared with PKCα: comparable activities to that of PKCα
